Broadly, the Kd is the constant that tells how readily two partners part at equilibrium.

Data on three molecules can be found in patent publication US20230322944A1 (published 2023).

Assay [1] has as its target T1, cynomolgus and/or rhesus monkey CD122 His tag (rhesus monkey, UniProt Q38J85 27-240 (cynomolgus entry)).
T1 construct: also called rhesus CD122; rhCD122
T1 sequence: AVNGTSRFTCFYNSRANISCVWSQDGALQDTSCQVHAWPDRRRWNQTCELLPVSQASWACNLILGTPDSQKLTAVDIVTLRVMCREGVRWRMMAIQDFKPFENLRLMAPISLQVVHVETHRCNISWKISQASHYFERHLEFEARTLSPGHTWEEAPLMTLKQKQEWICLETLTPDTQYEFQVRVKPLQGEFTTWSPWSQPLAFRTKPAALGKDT
Description: BIACORE SPR, Fab on rhesus CD122. As to the method: (§1) A mouse anti-human antibody (CH1 specific) was immobilized on a CMS Sensor Chip to a level of 2000 RU in acetate buffer at pH 4.5 using amine coupling following the Wizard instructions for two channels. One channel was used for background signal correction. The standard running buffer HBS-EP pH 7.4 was used. Regeneration was performed with a single injection of 10 μl of 10 mM Glycine at pH 1.5 at 20 μl/minute. IgG samples were injected for 2 minutes at 50 nM at 30 μl/min followed by and off-rate of 60 seconds. The monomeric antigen (human CD122 His tagged or cynomolgus and/or rhesus monkey CD122 His tag) was injected in two fold serial dilutions from 100 nM down to 3.1 nM, for 2 minutes at 30 μl/min followed by an off-rate of 300 seconds. The obtained sensorgrams were analyzed using the BIACORE® 3000 evaluation (BIAevaluation) software. The KD was calculated by simultaneous fitting of the association and dissociation phases to a 1:1 Langmuir binding model.

In another assay the target is T2, human CD122 His tagged (human, UniProt P14784 27-240).
T2 construct: also called hCD122
T2 sequence: T1 sequence with R7Q, T66A, A74T, M83L, M92V, K127E, M158L
As to the kind of experiment: BIACORE SPR, Fab on human CD122. On the procedure:
as §1

Substitutions are numbered along the chain they refer to.

B1: FAB03 (Fab, V domains shown)
VH: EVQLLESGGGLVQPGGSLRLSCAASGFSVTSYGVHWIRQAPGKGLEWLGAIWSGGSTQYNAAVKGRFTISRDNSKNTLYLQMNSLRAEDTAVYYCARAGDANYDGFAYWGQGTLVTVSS
VL: DIQMTQSPSSLSASVGDRVTITCQASSSVSFMYWYQQRPGKAPRLLIYDTSNLASGVPSRFSGSGSGTSYTFTISSLQPEDIATYYCQQWDTYPLTFGQGTKVEIK
notes: F11VH-1 + F11VK-123; Human monovalent Fab
For B1, the dissociation constant (Kd) in assay [1] was found to be 20.6 nM; with human CD122 His tagged, 38.6 nM.

B2: FAB12 (Fab, V domains shown)
VH: EVQLLESGGGLVQPGGSLRLSCAASGFTVTSYAVHWVRQAPGKGLEWLGVIWSGGSTDYNAAFISRLTISKDNSKNTVYFQMNSLRAEDTAVYYCARAGDYNYDGFAYWGQGTLVTVSS
VL: B1 VL
notes: F11VH-23 + F11VK-123; Human monovalent Fab
As to B2, the Kd is 19.5 nM in assay [1] and 21.8 nM in the assay with human CD122 His tagged.

B3: FAB09 (Fab, V domains shown)
VH: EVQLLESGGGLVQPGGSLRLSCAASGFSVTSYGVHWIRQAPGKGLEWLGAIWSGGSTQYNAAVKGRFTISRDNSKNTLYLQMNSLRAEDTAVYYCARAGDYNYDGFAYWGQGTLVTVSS
VL: B1 VL
notes: F11VH-13 + F11VK-123; Human monovalent Fab
In the case of B3, the dissociation constant Kd worked out at 36.5 nM in assay [1] and 72.5 nM with human CD122 His tagged.
